Columns and labels:
[1] = dynamic light scattering; 25°C, 90°, purified paramyosin in PBS pH 7.5 with 0.15, 0.5 and 1 M KCl; two populations by hydrodynamic radius (dimer, aggregates); number fractions calculated from the scattered intensities; conditions: other: dynamic light scattering
[2] = target: paramyosin from giant squid (Dosidicus gigas) (giant squid (Dosidicus gigas)); assay: as above
[3] = target: paramyosin from giant squid (Dosidicus gigas) (giant squid (Dosidicus gigas)); assay: static light scattering; Debye plot, 25°C, 90°, paramyosin 0.01-0.1 mg/ml in PBS pH 7.5 with 0.15, 0.5 and 1.0 M KCl; apparent Mw; monomers to dimer

Row | Substance | dimers per aggregate [1] | percent of molecules in dimeric form [2] [%] | stoichiometry N [3]
1 | paramyosin from giant squid (Dosidicus gigas) | there are ca. 5 dimer paramyosin particles inside an aggregate | – | –
2 | paramyosin from giant squid (Dosidicus gigas) (natural protein) | – | > 99 | 2

Source: publication PMC9846250
